The supplement of paper PMC10567573
± gives the standard deviation.

Test: protein stability index of a GFP-peptide fusion (GPS, HEK-293T) (PSI 1-6); higher = more stable
[1] = treatment: DMSO, c terminus: a fixed tail appended
[2] = treatment: MLN4924 1 uM, 8 h, c terminus: a fixed tail appended
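Also: 24-mer peptide tiles fused after GFP, lentivirally expressed, FACS-sorted into six equal bins by GFP/DsRed ratio, decoded by Illumina sequencing, PSI is the read-weighted mean bin number.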

| Sequence | protein stability index [1] | protein stability index [2] | protein stability index (treatment: DMSO, c terminus: native) | protein stability index (treatment: MLN4924 1 uM, 8 h, c terminus: native) |
| --- | --- | --- | --- | --- |
| TTVPEVEPPQDSHSRKTVLIKTIE [PRPH] | 4.58 ± 0.3 | 4.6 ± 0.38 |  |  |
| VLTLPFDVVKTQRQVALGAMEAVR [SLC25A39] | 2.51 ± 0.36 | 2.71 ± 0.26 |  |  |
| PVASSGEFFGSASQPAVELVSGSQ [CLINT1] | 4.57 ± 0.16 | 4.82 ± 0.21 |  |  |
| NIHMNFTHICRSHNSINQSLDESV [SLC2A12] | 2.56 ± 0.25 | 2.54 ± 0.23 |  |  |
| TEKTTTVLSESSGPSNTSHSSSRD [C2CD2L] | 5.42 ± 0.15 | 5.31 ± 0.25 |  |  |
| IRKGESRSEALAVDGAGKPGAEEA [CHGA] | 5.48 ± 0.12 | 5.43 ± 0.31 |  |  |
| PQLVSSAREGSSEPWLPLTDGRSP [PLEKHN1] | 4.83 ± 0.25 | 4.58 ± 0.085 |  |  |
| AEEGWSPTPKCLRLCFFPFVENGH [CFHR2] | 1.96 ± 0.28 | 2.12 ± 0.32 |  |  |
| GRPIKPPKKDLEDGEVPQHAGKKG [BRD3] | 5.41 ± 0.37 | 5.55 ± 0.061 |  |  |
| RRTRGPVERAAAAAAAAAGGDAGH [C6orf223] | 4.91 ± 0.31 | 5.07 ± 0.17 |  |  |
| EGYEFCHNRKVLTIFSASNYYEVG [PPEF2] | 2.31 ± 0.44 | 2.05 ± 0.44 |  |  |
| QWLRPHVSTKEQILDLLVLEQFLS [ZSCAN9] | 2.07 ± 0.5 | 2.22 ± 0.44 |  |  |
| QVITLDQVLDEVIPIHGKGNFPTM [TENT5D] | 2.29 ± 0.24 | 2.32 ± 0.25 |  |  |
| DGQYMGVAFRGLKGKKLYPVVSAV [SPSB1] | 2.36 ± 0.55 | 2.12 ± 0.48 |  |  |
| ATSRTDREIKVTLVFEHVDQDLRT [CDK4] | 2.2 ± 0.3 | 2.26 ± 0.41 |  |  |
| LLHLDLKPANILLDAHYHVKISDF [RIPK4] | 2.45 ± 0.32 | 2.36 ± 0.48 |  |  |
| AEEEEEEEEEVDLACTPTDVRDVD [CCND1] | 5.53 ± 0.31 | 5.41 ± 0.34 |  |  |
| RAVQGPEETVTQDCLQLIADSETP [TNFSF13B] | 5.38 ± 0.2 | 5.38 ± 0.15 |  |  |
| MRSNYPPPLSSAALRGAGPTRRN [C6orf223] |  |  | 3.1 ± 1.3 | 3.18 ± 0.51 |
| APSLEAPKPSGLEPGPAAYGLKPL [KCTD13] | 4.45 ± 0.25 | 4.58 ± 0.1 |  |  |
| QSIIAIIRAMGRLKIDFGDSARAD [GNAI1] | 2.44 ± 0.53 | 2.29 ± 0.93 |  |  |
| AKEEGGEEVAKAVLEQEETAAASR [EPB41L3] | 5.47 ± 0.37 | 5.79 ± 0.095 |  |  |
| GERPYKCSECGESFSRSSRLMSHQ [ZNF263] | 3.25 ± 0.51 | 3.53 ± 0.83 |  |  |

| Sequence | protein stability index [1] | protein stability index [2] | protein stability index (treatment: DMSO, c terminus: native) | protein stability index (treatment: MLN4924 1 uM, 8 h, c terminus: native) |
| --- | --- | --- | --- | --- |
| LNFCGPNVINHFYCDLPQLFQLSC [OR3A1] | 2.83 ± 0.51 | 2.6 ± 0.71 |  |  |
| VGLIRNLALCPANHAPLREQGAIP [CTNNB1] | 3.21 ± 0.24 | 3.32 ± 0.32 |  |  |
| APKVNAVDTLNVKDIAPEKQLLNS [DLC1] | 4.88 ± 0.2 | 4.82 ± 0.35 |  |  |
| SLLVTELGSSRTPETVRMVLSNME [IMPA1] | 3.15 ± 0.39 | 3.4 ± 0.23 |  |  |
| QIEERHQEKKRKFLESTDSFNNEL [SMARCE1] | 4.82 ± 0.25 | 5.08 ± 0.37 |  |  |
| EFKAAFDMFDADGGGDISVKELGT [TNNC2] | 4.16 ± 0.13 | 4.63 ± 0.11 |  |  |
| IPQAGGWGPWGPWGDCSRTCGGGV [ADAMTS4] | 2.68 ± 0.15 | 2.47 ± 0.22 |  |  |
| PVALLLAQHKDRSTQLEMQLEKPK [MNAT1] | 3.84 ± 0.19 | 3.8 ± 0.12 |  |  |
| KIKKSPLTICYPEYAGSNTYEEAA [GNAI1] | 3.34 ± 0.26 | 3.91 ± 0.28 |  |  |
| ENVDEASAAPGHPQDGSYPRQADH [KCNA1] | 5.55 ± 0.25 | 5.47 ± 0.26 |  |  |
| WAEAECQRQQLPVTFGNKQKVLGK [BTBD1] | 4.42 ± 0.45 | 4.31 ± 0.42 |  |  |
| VYTETVHVTVENVQELLPAACLLQ [KLHL12] | 2.12 ± 0.52 | 1.91 ± 0.26 |  |  |
| GVDSMAEEGTSDSNTGSESNSATV [SMARCE1] | 5.41 ± 0.14 | 5.57 ± 0.41 |  |  |
| SSFTWSVPSSGYGAVTASKHSNSP [SMTNL2] | 3.82 ± 0.26 | 3.87 ± 0.095 |  |  |
| DFYREDEDEEEEEGGEGEKEGEGE [TRIM55] | 5.57 ± 0.57 | 5.79 ± 0.084 |  |  |
| ADLRTNHTLNNLVEKLLREEAEGA [TRIM35] | 4.32 ± 0.17 | 4.43 ± 0.2 |  |  |
| KLENARLSSEMNTSTVNSAREELM [LMNB1] | 4.59 ± 0.19 | 4.71 ± 0.11 |  |  |
| LALDREPPPHLLPEKHQVPEKLIW [WDR88] | 3.31 ± 0.32 | 3.17 ± 0.3 |  |  |
| QITSRVVSAATQLRHFFLVEDLVD [RTN2] | 2.83 ± 0.24 | 3 ± 0.27 |  |  |
| NAVKYVSNIKFCSFHPLQYIGFYG [PDS5B] | 2.89 ± 0.25 | 2.35 ± 0.54 |  |  |
| LRRKSPASGQGPMCNVKAPLGSPS [ADAMTS4] | 3.85 ± 0.2 | 3.86 ± 0.46 |  |  |
| QKVAVYRALQAALAESGGSPDVLQ [TRADD] | 2.31 ± 0.36 | 2.4 ± 0.46 |  |  |
| GARDGIRYLEAEFKKGNRYIRCQK [SMG5] | 3.14 ± 0.3 | 3.57 ± 0.32 |  |  |

| Sequence | protein stability index [1] | protein stability index [2] | protein stability index (treatment: DMSO, c terminus: native) | protein stability index (treatment: MLN4924 1 uM, 8 h, c terminus: native) |
| --- | --- | --- | --- | --- |
| RLLSHDQVAMPYQWEYPYLLSILP [JAGN1] | 2.15 ± 0.19 | 1.99 ± 0.16 |  |  |
| VAFLEQRASALLASCSKNCTNSPA [FBXO34] | 2.9 ± 0.25 | 2.76 ± 0.28 |  |  |
| MVKEPVEDTDPSTLSFNMSDKYPI [EDARADD] | 4.37 ± 0.43 | 4.5 ± 0.29 |  |  |
| KSIYYITGESKEQVANSAFVERVR [HSP90AB1] | 3.11 ± 0.32 |  |  |  |
| SGAVGARRFLLCLYLVGFLDLFGV [MFSD9] | 2.99 ± 0.54 | 2.84 ± 0.37 |  |  |
| AEISQPPALSQLVNLYLGRSHFLW [TCF25] | 2.67 ± 0.23 | 2.73 ± 0.44 |  |  |
| LELIEPLIKFQVGLKKLNLHEEEH [VDR] | 2.73 ± 0.21 | 2.9 ± 0.42 |  |  |
| KSLLPHLKTGNSSPGIGAVYLANQ [RTP4] | 2.71 ± 0.16 | 2.77 ± 0.2 |  |  |
| GGMSHLHTFRATFQEPLYPALRLW [TRIM14] | 2.21 ± 0.22 | 2.13 ± 0.091 |  |  |
| PESETSILLSWTPPRSDTIANYEL [PTPRD] | 3.09 ± 0.35 | 2.96 ± 0.39 |  |  |
| VQAPRWGNPRALSFVLSSLQLGEG [OAS1] | 2.31 ± 0.2 | 2.24 ± 0.22 |  |  |
| SHLLVVEPEKLYAMPDPAGPDGHL [ESRRA] | 3.68 ± 0.17 | 3.82 ± 0.27 |  |  |
| EGSRSSGSNRSGSDRRKEKDPKAG [DVL3] | 5.38 ± 0.15 | 5.5 ± 0.2 |  |  |
| SNFPRQYFALRKILKQLIADVTLD [TRIM39] | 2.54 ± 0.58 | 2.19 ± 0.53 |  |  |
| RPSRSGAQQLEEEGPMEEEEAQPM [EID1] | 5.66 ± 0.25 | 5.53 ± 0.2 |  |  |
| QLQPTSIEKEVFPIMAKEGQLYAM [GMPPB] | 3.1 ± 0.27 | 2.96 ± 0.5 |  |  |
| SHYTSPSENMWNTGSTYNLSSGMA [CARM1] | 2.84 ± 0.37 | 3.14 ± 0.21 |  |  |
| GQYATTKGISQTNLITTVTPEKKA [EPB41L3] | 5.07 ± 0.2 | 5.11 ± 0.17 |  |  |
| LSPKKTWEGFIGGFFSTVVFGFIA [CDS1] | 2.28 ± 0.47 | 2.15 ± 0.63 |  |  |
| MCPLYDPNRQLWIELAPLSMPRIN [GAN] | 2.22 ± 0.11 | 2.23 ± 0.28 |  |  |
| ENIAWVKSYNICFELEDSNEIFTQ [PDS5B] | 2.46 ± 0.61 | 2.53 ± 0.28 |  |  |
| PVRTTNKISKQFVAPADVRRLLSY [ZSWIM9] | 2.44 ± 0.17 | 2.84 ± 0.13 |  |  |
| LARGPLNQTALHLAAAHGHSEVVE [RIPK4] | 4.36 ± 0.18 | 4.55 ± 0.19 |  |  |

| Sequence | protein stability index [1] | protein stability index [2] | protein stability index (treatment: DMSO, c terminus: native) | protein stability index (treatment: MLN4924 1 uM, 8 h, c terminus: native) |
| --- | --- | --- | --- | --- |
| FFIRTSDSFDKFDFCEPSFVTGNC [PCMTD2] | 2.52 ± 0.33 | 2.42 ± 0.26 |  |  |
| RSLGPRAPSLRRHVLIHNTLQQLQ [SERTAD3] | 2.64 ± 0.25 | 3.05 ± 0.19 |  |  |
| DVLENAFAPLLDEQYDLATKRVRQ [GOLPH3] | 3.43 ± 0.26 | 3.52 ± 0.5 |  |  |
| PRKVSTCTDHELENHSMYCVQCKM [TRIM9] | 4.53 ± 0.27 | 4.74 ± 0.33 |  |  |
| SALPTGSPKRGTAPGDLSATEPAT [FBF1] | 5.32 ± 0.36 | 5.32 ± 0.086 |  |  |
| DMMVMGRKPDPMCVFTYVQSLYNH [SMTNL2] | 2.28 ± 0.24 | 2.2 ± 0.34 |  |  |
| AQRLRPQDEPRQGCQPEDRRRRII [KCNG1] | 4.92 ± 0.23 | 4.9 ± 0.1 |  |  |
| THSPQKSHQCAHCEKTFNRKDHLK [PLAGL1] | 3.97 ± 0.16 | 4.05 ± 0.28 |  |  |
| AIVDLISRQYDKFLTHFILMNDVI [FBXO33] | 3.1 ± 0.45 | 3.36 ± 0.28 |  |  |
| EGKTKKGVLEAPDTQVNPVGSVSV [FBXO34] | 5.08 ± 0.17 | 5.14 ± 0.11 |  |  |
| ANLKQVKKEDTEKERDLRDVGDWR [TNNI2] | 5.33 ± 0.076 | 4.96 ± 0.24 |  |  |
| PLFYPGIRAGRKNAAPLTIRPPTD [TRIM39] | 3.56 ± 0.25 | 3.58 ± 0.15 |  |  |
| GGDGSGCSKQSGSFRKFRYGYNNV [ADAMTS4] | 3.59 ± 0.3 | 3.389 ± 0.008 |  |  |
| FDKLALRFHGRLLFLKDVLGDEIC [KCTD13] | 2.48 ± 0.41 | 2.34 ± 0.18 |  |  |
| HRKAVHLRTRGRTRGWVQTLARMS [C6orf223] | 2.57 ± 0.34 | 2.49 ± 0.17 |  |  |
| IELNPPEKMALDPYTELRKQPLRK [EFHC1] | 4.08 ± 0.2 | 4.21 ± 0.33 |  |  |
| EELEDSKALLYLPIAPEVEDPEEN [RBBP5] | 5.5 ± 0.6 | 5.24 ± 0.42 |  |  |
| EILLDFVYTETVHVTVENVQELLP [KLHL12] | 2.31 ± 0.59 | 2.4 ± 1.3 |  |  |
| KTVCGYYTSAGTYGLDSVKKKCLE [GMCL1] | 3.16 ± 0.3 | 2.97 ± 0.49 |  |  |
| SQFLKHQQTHNIEKAHECTDCGKA [ZNF649] | 4.88 ± 0.26 | 4.985 ± 0.041 |  |  |
